# According to patent publication US10967064B2, “Preparation method for a DNA origami based carrier system” (YEDITEPE UNIVERSITESI, priority 2016, dated 2021):
# Legend:
# [1] = Dynamic light scattering analysis of hydrodynamic size; assay type: physicochemical; settings: DLS, dispersed in water
# Description: In step 1), 2 μL of each complementary oligonucleotide from a 100 μM stock is added into the hybridization buffer TAE/Mg^2+ to have a final volume of 200 μL. The newly prepared DNA origami carrier is characterized using AFM, agarose gel electrophoresis and dynamic light scattering analysis.
# For DLS measurements, DNA tiles are dispersed in water. In water, DNA tiles are solvated by water molecules. This hydration layer causes grater diameter than theoretical size of the structure. Hydrodynamic size of DNA tiles was determined as approximately 50 nm, which is in good agreement with AFM results.
# [2] = Atomic force microscopy (AFM) size of DNA tile on mica; assay type: physicochemical; settings: dried on mica, non-contact mode; theoretical value 40 nm
# Text: The DNA tile samples taken from the hybridization media were dropped on mica surface for deposition and subsequently washed with deionized water. When the dropped DNA samples on mica were dried, images acquired at non-contact mode. Considering the distance between the base pairs in the DNA as 0.34 nm and the number of the base pairs in the DNA tile structure from one end to another, […], the theoretical length of an assembled DNA tile can be estimated as 40 nm. A representative AFM image obtained from the DNA tile containing dried droplet area is shown on FIG. 2. […] The marked structure is measured as 64 nm, which is larger than the theoretical value of 40 nm. […] Considering the fact that the formation of DNA based structures is not always 100 percent efficient, this deviation can be acceptable.
# MDA-MB-231 cell line = assay: Cytotoxicity of the DNA origami carrier (cell viability); assay type: cell-based; settings: MDA-MB-231, concentration range 50-400 nM
# Description: The cytotoxicity assessments of the DNA origami structure were carried out on MDA-MB-231 cell line at a concentration range of 50-400 nM. According to the cell viability results of the experiment, the DNA-tiles are non-toxic to the cells.
molecule,measurement,setting,value
"DNA tiles: tile shaped DNA origami structure prepared by hybridizing nine complementary oligonucleotides (SEQ ID NOS: 1-9) (nucleic acid, Oligonucleotide 1; Oligonucleotide 2; Oligonucleotide 3; Oligonucleotide 4; Oligonucleotide 5; Oligonucleotide 6; Oligonucleotide 7; Oligonucleotide 8; Oligonucleotide 9) DNA 1: AGGCACCATCGTAGGAAAATCTGCGTCAGCTCTCCGTACACCAGTGCTTCCATGCGAAGTAAAACGTTCCGATCACCAACGGAGTAAAACGATCTAACTGATAACTAGCACCTCTGCTCACGTGAGGAGTAAAACTTGCC DNA 2: ATACCGGAGGCTTCCTGTACGGAGAGCTGACGCAGACCTACGATGGACACGCCG DNA 3: ATGCAACCTGCCTGGCAAGACTCCTCACGTGAGCAGAGGACTACTCATCCGTTA DNA 4: TTTCCGACTGAGCCCTGCTAGTTATCAGTTAGATCGACTCCGTTGGACGAACAG DNA 5: ATAGCGCCTGATCGGAACGACTTCGCATGGAAGCACTGGACCGTTCTACCGATT DNA 6: CTCGCAATCGGTAGAACGGTGGAAGCCTCCGGTATGCATG DNA 7: AAAAAAAAAACGGCGTGTGGTTGCATAAAAAAAAAA DNA 8: CGCTATAACGGATGAGTAGTGGGCTCAGTCGGAAAGAGCA DNA 9: AAAAAAAAAACTGTTCGTGGCGCTATAAAAAAAAAA",Hydrodynamic size,[1],approximately 50 nm
same,Size of marked structure in AFM image,[2],64 nm
same,Cytotoxicity (cell viability),MDA-MB-231 cell line,non-toxic
